Test results taken from paper doi:10.1101/2025.03.04.641353.
Read-outs that look alike come from different tables or passages of the source.

B1: R_apt (ssDNA)
DNA: AGCAGCACAGAGGTCAGATGGTATCGAGCGCAGGGCCGCCTTTGTT
B2: Ni_apt (ssDNA)
DNA: AAAAAAAAAAGCAGCACAGAGGTCAGATGGTATCGAGCGCAGGGCCGCCTTTGTT

Tests used:
[1] = biological target: T1, Bovine serum albumin (BSA) (Bos taurus, UniProt P02769 25-607); assay: SYBR Green I fluorescence titration
[2] = biological target: T1, Bovine serum albumin (BSA); assay: SYBR Green I fluorescence titration; remark: listed apart in the source

T1 sequence (P02769 25-607): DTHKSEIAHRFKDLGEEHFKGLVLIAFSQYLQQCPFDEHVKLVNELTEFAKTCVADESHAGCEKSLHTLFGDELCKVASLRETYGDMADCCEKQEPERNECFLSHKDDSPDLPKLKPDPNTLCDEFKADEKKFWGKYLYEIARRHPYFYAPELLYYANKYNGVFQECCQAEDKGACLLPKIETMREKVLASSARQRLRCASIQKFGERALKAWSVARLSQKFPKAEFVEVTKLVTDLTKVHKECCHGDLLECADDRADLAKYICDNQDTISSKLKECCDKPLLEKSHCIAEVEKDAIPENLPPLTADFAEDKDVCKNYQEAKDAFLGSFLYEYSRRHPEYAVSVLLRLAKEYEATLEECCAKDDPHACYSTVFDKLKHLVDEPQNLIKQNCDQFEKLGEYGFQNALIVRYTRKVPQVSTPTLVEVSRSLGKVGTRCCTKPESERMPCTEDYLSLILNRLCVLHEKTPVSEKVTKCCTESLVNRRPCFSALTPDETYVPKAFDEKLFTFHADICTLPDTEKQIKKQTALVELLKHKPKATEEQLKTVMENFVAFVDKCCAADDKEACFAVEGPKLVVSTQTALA

Binder	Kd [1]	Kd [2]
B1	20 nM	
B2		120 nM
